Results from publication PMC10139940.
pKd: −log10 of the molar value.

Target: Active site-blocked human EGR-bound FIXa (human) (UniProt P00740)
Test: SPR

Chain of UniProt P00740 (P00740 47-191, chain 1 of 2): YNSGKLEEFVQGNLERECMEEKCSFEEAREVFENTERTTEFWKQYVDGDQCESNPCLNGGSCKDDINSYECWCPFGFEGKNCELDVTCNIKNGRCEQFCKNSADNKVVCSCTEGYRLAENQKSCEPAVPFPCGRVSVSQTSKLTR
Chain of UniProt P00740 (P00740 227-461, chain 2 of 2): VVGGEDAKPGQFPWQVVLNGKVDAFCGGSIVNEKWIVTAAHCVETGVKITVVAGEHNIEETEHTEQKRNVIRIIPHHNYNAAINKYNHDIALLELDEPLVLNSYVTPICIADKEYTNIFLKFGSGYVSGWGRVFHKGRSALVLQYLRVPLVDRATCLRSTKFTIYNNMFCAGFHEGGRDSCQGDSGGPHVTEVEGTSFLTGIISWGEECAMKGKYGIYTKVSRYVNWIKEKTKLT

pKd | Substance
8.20 | B domain-deleted WT-FVIII lacking Q744-S1637 (natural protein)
8.29 | B domain-deleted FVIII mutant K1818A (natural protein)
8.33 | B domain-deleted FVIII double mutant K1813A/K1818A (natural protein)
8.41 | B domain-deleted FVIII mutant K1813A (natural protein)
